B1: CBL-interacting serine/threonine-protein kinase 24 (Arabidopsis thaliana (Mouse-ear cress)), Q9LDI3 (parent)
chain: MTKKMRRVGKYEVGRTIGEGTFAKVKFARNTDTGDNVAIKIMAKSTILKNRMVDQIKREISIMKIVRHPNIVRLYEVLASPSKIYIVLEFVTGGELFDRIVHKGRLEESESRKYFQQLVDAVAHCHCKGVYHRDLKPENLLLDTNGNLKVSDFGLSALPQEGVELLRTTCGTPNYVAPEVLSGQGYDGSAADIWSCGVILFVILAGYLPFSETDLPGLYRKINAAEFSCPPWFSAEVKFLIHRILDPNPKTRIQIQGIKKDPWFRLNYVPIRAREEEEVNLDDIRAVFDGIEGSYVAENVERNDEGPLMMNAFEMITLSQGLNLSALFDRRQDFVKRQTRFVSRREPSEIIANIEAVANSMGFKSHTRNFKTRLEGLSSIKAGQLAVVIEIYEVAPSLFMVDVRKAAGETLEYHKFYKKLCSKLENIIWRATEGIPKSEILRTITF
B2: Protein phosphatase 2C 77 (Arabidopsis thaliana (Mouse-ear cress)), O04719 (parent)
chain: MDEVSPAVAVPFRPFTDPHAGLRGYCNGESRVTLPESSCSGDGAMKDSSFEINTRQDSLTSSSSAMAGVDISAGDEINGSDEFDPRSMNQSEKKVLSRTESRSLFEFKCVPLYGVTSICGRRPEMEDSVSTIPRFLQVSSSSLLDGRVTNGFNPHLSAHFFGVYDGHGGSQVANYCRERMHLALTEEIVKEKPEFCDGDTWQEKWKKALFNSFMRVDSEIETVAHAPETVGSTSVVAVVFPTHIFVANCGDSRAVLCRGKTPLALSVDHKPDRDDEAARIEAAGGKVIRWNGARVFGVLAMSRSIGDRYLKPSVIPDPEVTSVRRVKEDDCLILASDGLWDVMTNEEVCDLARKRILLWHKKNAMAGEALLPAEKRGEGKDPAAMSAAEYLSKMALQKGSKDNISVVVVDLKGIRKFKSKSLN
partner: B1 chain

Variants of: B1
Details: with ABI2, O04719

effect of a mutation on the interaction	Variant
decreasing interaction	R340A;F341A

Variants of: B2
Details: with cipko_arath CIPK24, Q9LDI3

effect of a mutation on the interaction	Variant
decreasing interaction	G168D
decreasing interaction	G162D
